Reference: patent publication US20220409620A1, “REDUCING IMMUNOGENICITY TO PEGLOTICASE” (Horizon Pharma Rheumatology LLC, priority 2016, published 2022)
Like-named read-outs stand apart in the source and are kept apart here.

How the values were obtained:
[1] = system: patients with refractory chronic gout; experiment: Prior Phase 3 / pre-marketing pegloticase monotherapy trials (C0405 and C0406): response, infusion reactions, antibodies, PK; type: in vivo, human
Experimental: Improvements were more rapid in patients who received pegloticase 8 mg every 2 weeks compared to every 4 weeks and met the outcomes data of complete resolution of at least 1 tophus with no new or progressive tophi as assessed by blinded assessment of digital photographs of target tophi.
During the second 3 months of treatment, a lower proportion of pegloticase-treated patients experienced flares than patients receiving placebo. The incidence of flares during this period was lowest in the group receiving pegloticase 8 mg every 2 weeks than in the group who received pegloticase 8 mg every 4 weeks, as was the incidence of infusion-related reactions (26% with biweekly dosing vs. 40% with the every-4-week dosing regimen). Both infusion reactions (IRs) and gout flares were least common in patients with sustained urate-lowering responses to treatment and those who received bi-weekly treatment. In most pegloticase-treated patients with IRs, a loss of response to pegloticase (return to SUA >6 mg/dL) preceded the time of the first IR ( 20/21; 95%).
A relationship between the loss of urate-lowering efficacy, incidence of IRs, and high-titer antibody formation was identified in a post-hoc analysis of the pooled data from the Phase 3 studies. […] In one study, 69 (41%) of 169 patients receiving pegloticase developed high titer anti-pegloticase antibodies and subsequently lost response to the drug. In a second study, only 1 of 52 participants with high antibody titers maintained a response to pegloticase (serum urate <6 mg/dL). In addition, 60% participants with high titers developed IR. Anti-pegloticase antibodies were largely directed to the polyethylene glycol (PEG) portion of the molecule and altered the pharmacokinetic clearance of pegloticase, resulting in inhibition of SUA lowering activity. […] In addition, 31 of 52 (60%) patients with titers exceeding 1:2430 developed IRs. […] By preventing the formation of anti-pegloticase antibodies, a tolerizing dose regimen should prevent loss of response to the drug and decrease the incidence of IRs associated with it.
An AE that was not an unexpected AE was an infusion reaction and rarely anaphylaxis. Safety assessments in this study include an evaluation of the frequency and severity of IRs and anaphylaxis. During pre-marketing controlled clinical trials, infusion reactions were reported in 26% of patients treated with pegloticase 8 mg every 2 weeks. During pre-marketing controlled clinical trials, anaphylaxis was reported with a frequency of 6.5% of patients treated with pegloticase. For the purposes of this study, these events shall be defined as follows: […]
Methods: In the MIRROR OL trial, MTX (15 mg/week) was given orally 4 weeks prior to the first pegloticase dose and continued weekly, in combination with pegloticase 8 mg given intravenously every 2 weeks, for a treatment duration of up to 52 weeks. Pre-infusion samples were collected to measure MTX-PGs 1 to 5 in red blood cells at day 1, week 4, 8, 22, 24 and 36. […] Pegloticase concentrations in serum was measured using a validated enzymatic/fluorescence assay. The limit of quantification is 0.6 μg/mL. Anti-pegloticase/PEG IgG antibodies (ADA) were measured using a validated enzyme linked immunosorbent assay (ELISA). The analysis of MTX Polyglutamates was conducted by Exagen. The impact of MTX on pegloticase PK was evaluated by two methods: (1) Comparing pegloticase exposures (median Cmax and Cmin across visits) with MTX from the MIRROR OL trial to the observed levels in historical monotherapy Phase 3 studies (C0405 and C0406) (Lipsky et al., Arthritis Res Ther 16(2), 2014; Sundy et al., JAMA 306(7), 2011). Overlaying observed pegloticase concentrations with MTX against the 90% prediction band of pegloticase concentrations following monotherapy based on the population PK model from the Phase 3 data (Yue et al., ASCPT. Atlanta, 2010).

[2] = system: patients with refractory chronic gout; details: cited from earlier work; for patients maintaining a response to pegloticase: another study
patients = details: cited from earlier work

For pegloticase, the “Cmax, Median (Q1, Q3)” value ([1]; BQL: below 0.6 μg/mL) was 1.51 (BQL, 2.48) μg/mL, the “Cmin, Median (Q1, Q3)” value ([1]; BQL: below 0.6 μg/mL) was “BQL (BQL, BQL)” and the “Cmax BQL, %” value ([1]; Quantitation Limit 0.6 μg/mL) was 29%. For the same molecule, the “Cmax BQL, n/N” value ([1]; Quantitation Limit 0.6 μg/mL) was 25/85, the “Cmin BQL, %” value ([1]; Quantitation Limit 0.6 μg/mL) was 77% and the “Cmin BQL, n/N” value ([1]; Quantitation Limit 0.6 μg/mL) was 63/82. For the same molecule, the Non-responders ([2]; C0405 and C0406) was 49/85, the “patients maintaining a response to pegloticase” value ([2]; antibody titer exceeding 1:2430 at any time during treatment, 7 of 65) was 10.8% and the “patients maintaining a response to pegloticase” value ([2]; never had an antibody titer above 1:2430, 58/65) was 89.2%. For the same molecule, the “Responders (sUA <6 mg/dL for at least 80% of the time during month 6)” value ([2]; historical Phase 3 monotherapy trials C0405 and C0406, 36/85) was 42%, the “response rate during Month 6” value ([2]; pegloticase 8 mg every 2 weeks, phase 3 studies) was 43% and the “proportion of responders during Month 6” value ([2]; phase 3 studies) was 43.5%. The “incidence of infusion-related reactions” value ([2]; pooled Phase 3, 8 mg biweekly dosing) was 26%, the “incidence of infusion-related reactions” value ([2]; pooled Phase 3, 8 mg every-4-week dosing regimen) was 40% and the “pegloticase-treated patients with IRs in whom loss of response (return to SUA >6 mg/dL) preceded the first IR” value ([2]; pooled Phase 3, 20/21) was 95%. The infusion reactions reported ([2]; pre-marketing controlled clinical trials, 8 mg every 2 weeks) was 26%, the anaphylaxis frequency ([2]; pre-marketing controlled clinical trials) was 6.5% and the “participants with high antibody titers who maintained a response (serum urate <6 mg/dL)” value ([2]; second study) was 1 of 52 participants. The “participants with high titers who developed IR” value ([2]; second study) was 60%, the “patients who developed IRs” value ([2]; titers exceeding 1:2430, 31 of 52) was 60% and the “patients with Cmin below quantitation limit” value ([2]; without MTX, 63/82) was 77%. For the same molecule, the “pegloticase overall Cmin, median” value ([2]; without MTX, historical monotherapy, BQL = below quantitation limit of 0.6 μg/mL) was “BQL” and the “pegloticase Cmax, median” value ([2]; without MTX, historical monotherapy) was 1510 ng/mL.
For `CN(Cc1cnc2nc(N)nc(N)c2n1)c1ccc(C(=O)N[C@@H](CCC(=O)O)C(=O)O)cc1` [MTX, methotrexate], the “Increased susceptibility to infection” value (patients; RA) is given as less than 1%, the Leukopenia (patients; RA) is given as 28% and the Nausea and vomiting (patients; RA) is given as 12%. For the same molecule, the “Increased susceptibility to infection” value (patients; renal transplant) was 20%, the Leukopenia (patients; renal transplant) was greater than 50% and the “neoplasia (lymphoma)” value (patients; renal transplant) was 0.5%. The “neoplasia (other than lymphoma)” value (patients; renal transplant) was 3%.
